Source: patent US20220177596A1 (Bristol-Myers Squibb, published 2022)

B1: humanized Y1238 hz24 (hz-HC5 / hz-LC4), IgG1.3f (antibody, V domains shown)
VH: QVQLVQSGAEVKKPGASVKVSCKASGYAFTNYLIEWVRQRPGQGLEWMGVINPGSGGTNYNEKFKGRVTMTADKSISTAYMELSRLRSDDTAVYYCARSQLGRRFDYWGQGTLVTVSS
VL: DIQMTQSPSSLSASVGDRVTITCKASQDVRTGVAWYQQKPGQSPKLLIYSASYRNTGVPSRFSGSRSGTDFTFTISSLQAEDIAVYYCQQHYSPPYTFGGGTKVEIK
notes: IgG1.3f heavy constant, common CL; expression supernatant; also called Sup 24
B2: humanized Y1238 hz26 (hz-HC6 / hz-LC1), IgG1.3f (antibody, V domains shown)
VH: QVQLVQSGAEVKKPGASVKVSCKASGYAFTNYLIEWVRQRPGQGLEWMGVINPGSGGTNYNEKFKGRVTLTADKSISTAYMELSRLRSDDTAVYYCARSQLGRRFDYWGQGTLVTVSS
VL: DIQMTQSPSSLSASVGDRVTITCKASQDVRTGVAWYQQKPGKAPKLLIYSASYRNTGVPSRFSGSGSGTDFTFTISSLQPEDIATYYCQQHYSPPYTFGGGTKVEIK
notes: IgG1.3f heavy constant, common CL; expression supernatant; also called Sup 26
B3: humanized Y1238 hz27 (hz-HC6 / hz-LC2), IgG1.3f (antibody, V domains shown)
VH: QVQLVQSGAEVKKPGASVKVSCKASGYAFTNYLIEWVRQRPGQGLEWMGVINPGSGGTNYNEKFKGRVTLTADKSISTAYMELSRLRSDDTAVYYCARSQLGRRFDYWGQGTLVTVSS
VL: DIQMTQSPSSLSASVGDRVTITCKASQDVRTGVAWYQQKPGKAPKLLIYSASYRNTGVPSRFSGSRSGTDFTFTISSLQPEDIATYYCQQHYSPPYTFGGGTKVEIK
notes: IgG1.3f heavy constant, common CL; expression supernatant; also called Sup 27
B4: humanized Y1238 hz28 (hz-HC6 / hz-LC3), IgG1.3f (antibody, V domains shown)
VH: QVQLVQSGAEVKKPGASVKVSCKASGYAFTNYLIEWVRQRPGQGLEWMGVINPGSGGTNYNEKFKGRVTLTADKSISTAYMELSRLRSDDTAVYYCARSQLGRRFDYWGQGTLVTVSS
VL: DIQMTQSPSSLSASVGDRVTITCKASQDVRTGVAWYQQKPGQSPKLLIYSASYRNTGVPSRFSGSRSGTDFTFTISSLQPEDIAVYYCQQHYSPPYTFGGGTKVEIK
notes: IgG1.3f heavy constant, common CL; expression supernatant; also called Sup 28
B5: humanized Y1238 hz29 (hz-HC6 / hz-LC4), IgG1.3f (antibody, V domains shown)
VH: QVQLVQSGAEVKKPGASVKVSCKASGYAFTNYLIEWVRQRPGQGLEWMGVINPGSGGTNYNEKFKGRVTLTADKSISTAYMELSRLRSDDTAVYYCARSQLGRRFDYWGQGTLVTVSS
VL: DIQMTQSPSSLSASVGDRVTITCKASQDVRTGVAWYQQKPGQSPKLLIYSASYRNTGVPSRFSGSRSGTDFTFTISSLQAEDIAVYYCQQHYSPPYTFGGGTKVEIK
notes: IgG1.3f heavy constant, common CL; expression supernatant; also called Sup 29
B6: humanized Y1238 hz30 (hz-HC6 / hz-LC5), IgG1.3f (antibody, V domains shown)
VH: QVQLVQSGAEVKKPGASVKVSCKASGYAFTNYLIEWVRQRPGQGLEWMGVINPGSGGTNYNEKFKGRVTLTADKSISTAYMELSRLRSDDTAVYYCARSQLGRRFDYWGQGTLVTVSS
VL: DIQMTQSPSSLSASVGDRVTITCKASQDVRTGVAWYQQKPGQAPKLLIYSASYRNTGVPSRFSGSRSGTDFTFTISSLQPEDIAVYYCQQHYSPPYTFGGGTKVEIK
notes: IgG1.3f heavy constant, common CL; expression supernatant; also called Sup 30
B7: humanized Y1238 hz31 (hz-HC7 / hz-LC1), IgG1.3f (antibody, V domains shown)
VH: QVQLVQSGAEVVKPGASVKVSCKASGYAFTNYLIEWVRQRPGQGLEWMGVINPGSGGTNYNEKFKGRVTMTADKSSSTAYMQLSRLRSDDTAVYFCARSQLGRRFDYWGQGTLVTVSS
VL: DIQMTQSPSSLSASVGDRVTITCKASQDVRTGVAWYQQKPGKAPKLLIYSASYRNTGVPSRFSGSGSGTDFTFTISSLQPEDIATYYCQQHYSPPYTFGGGTKVEIK
notes: IgG1.3f heavy constant, common CL; expression supernatant; also called Sup 31
B8: humanized Y1238 hz32 (hz-HC7 / hz-LC2), IgG1.3f (antibody, V domains shown)
VH: QVQLVQSGAEVVKPGASVKVSCKASGYAFTNYLIEWVRQRPGQGLEWMGVINPGSGGTNYNEKFKGRVTMTADKSSSTAYMQLSRLRSDDTAVYFCARSQLGRRFDYWGQGTLVTVSS
VL: DIQMTQSPSSLSASVGDRVTITCKASQDVRTGVAWYQQKPGKAPKLLIYSASYRNTGVPSRFSGSRSGTDFTFTISSLQPEDIATYYCQQHYSPPYTFGGGTKVEIK
notes: IgG1.3f heavy constant, common CL; expression supernatant; also called Sup 32
B9: humanized Y1238 hz33 (hz-HC7 / hz-LC3), IgG1.3f (antibody, V domains shown)
VH: QVQLVQSGAEVVKPGASVKVSCKASGYAFTNYLIEWVRQRPGQGLEWMGVINPGSGGTNYNEKFKGRVTMTADKSSSTAYMQLSRLRSDDTAVYFCARSQLGRRFDYWGQGTLVTVSS
VL: DIQMTQSPSSLSASVGDRVTITCKASQDVRTGVAWYQQKPGQSPKLLIYSASYRNTGVPSRFSGSRSGTDFTFTISSLQPEDIAVYYCQQHYSPPYTFGGGTKVEIK
notes: IgG1.3f heavy constant, common CL; expression supernatant; also called Sup 33
B10: humanized Y1238 hz34 (hz-HC7 / hz-LC4), IgG1.3f (antibody, V domains shown)
VH: QVQLVQSGAEVVKPGASVKVSCKASGYAFTNYLIEWVRQRPGQGLEWMGVINPGSGGTNYNEKFKGRVTMTADKSSSTAYMQLSRLRSDDTAVYFCARSQLGRRFDYWGQGTLVTVSS
VL: DIQMTQSPSSLSASVGDRVTITCKASQDVRTGVAWYQQKPGQSPKLLIYSASYRNTGVPSRFSGSRSGTDFTFTISSLQAEDIAVYYCQQHYSPPYTFGGGTKVEIK
notes: IgG1.3f heavy constant, common CL; expression supernatant; also called Sup 34
B11: humanized Y1238 hz35 (hz-HC7 / hz-LC5), IgG1.3f (antibody, V domains shown)
VH: QVQLVQSGAEVVKPGASVKVSCKASGYAFTNYLIEWVRQRPGQGLEWMGVINPGSGGTNYNEKFKGRVTMTADKSSSTAYMQLSRLRSDDTAVYFCARSQLGRRFDYWGQGTLVTVSS
VL: DIQMTQSPSSLSASVGDRVTITCKASQDVRTGVAWYQQKPGQAPKLLIYSASYRNTGVPSRFSGSRSGTDFTFTISSLQPEDIAVYYCQQHYSPPYTFGGGTKVEIK
notes: IgG1.3f heavy constant, common CL; expression supernatant; also called Sup 35
B12: humanized Y1238 hz36 (hz-HC8 / hz-LC1), IgG1.3f (antibody, V domains shown)
VH: QVQLVQSGAEVVKPGASVKVSCKASGYAFTNYLIEWVRQRPGQGLEWMGVINPGSGGTNYNEKFKGRVTLTADKSSSTAYMQLSRLRSDDTAVYFCARSQLGRRFDYWGQGTLVTVSS
VL: DIQMTQSPSSLSASVGDRVTITCKASQDVRTGVAWYQQKPGKAPKLLIYSASYRNTGVPSRFSGSGSGTDFTFTISSLQPEDIATYYCQQHYSPPYTFGGGTKVEIK
notes: IgG1.3f heavy constant, common CL; expression supernatant; also called Sup 36
B13: humanized Y1238 hz37 (hz-HC8 / hz-LC2), IgG1.3f (antibody, V domains shown)
VH: QVQLVQSGAEVVKPGASVKVSCKASGYAFTNYLIEWVRQRPGQGLEWMGVINPGSGGTNYNEKFKGRVTLTADKSSSTAYMQLSRLRSDDTAVYFCARSQLGRRFDYWGQGTLVTVSS
VL: DIQMTQSPSSLSASVGDRVTITCKASQDVRTGVAWYQQKPGKAPKLLIYSASYRNTGVPSRFSGSRSGTDFTFTISSLQPEDIATYYCQQHYSPPYTFGGGTKVEIK
notes: IgG1.3f heavy constant, common CL; expression supernatant; also called Sup 37
B14: humanized Y1238 hz38 (hz-HC8 / hz-LC3), IgG1.3f (antibody, V domains shown)
VH: QVQLVQSGAEVVKPGASVKVSCKASGYAFTNYLIEWVRQRPGQGLEWMGVINPGSGGTNYNEKFKGRVTLTADKSSSTAYMQLSRLRSDDTAVYFCARSQLGRRFDYWGQGTLVTVSS
VL: DIQMTQSPSSLSASVGDRVTITCKASQDVRTGVAWYQQKPGQSPKLLIYSASYRNTGVPSRFSGSRSGTDFTFTISSLQPEDIAVYYCQQHYSPPYTFGGGTKVEIK
notes: IgG1.3f heavy constant, common CL; expression supernatant; also called Sup 38

molecular target: T1, human-CD40 monomer (human, UniProt P25942 21-193, limits assumed); assay: SPR 2 pt screen, Ab on protein A
T1 construct: also called hCD40-monomer; human-CD40-monomer protein
Experimental: The VH sequences were formatted in the context of an IgG1.3f isotype. The Vκ sequences were formatted as a full light chain with a common CL sequence. All 55 combinations of these humanized HC and LC constructs, as well as the chimeric Y1238 molecule were expressed as 3 ml supernatants for binding analysis by SPR. Each of the 56 supernatants, as well as a purified Y1238-chimeric IgG1 antibody, was captured on a protein A sensor chip and tested for binding to two concentrations (i.e., 200 nM and 1000 nM) of hCD40-monomer using BIAcore™ SPR in a screening assay. All antibodies, except for those containing hz-HC3, captured at high levels (>300 RU) using a 100-fold dilution of the expression supernatant, indicating a high antibody titer in the supernatant except for the hz-HC3 samples. The kinetic data for the two concentrations of hCD40-monomer were fit to a 1:1 Langmuir model, to yield estimates of the kinetic and affinity values for these interactions, and for comparison of the different molecules. […] Also, for a given heavy chain, the antibodies with light chains hz-LC1 or hz-LC2 had higher CD40 affinity than those with hz-LC3, hz-LC4 or hz-LC5.

T1 sequence (P25942 21-193 limits assumed): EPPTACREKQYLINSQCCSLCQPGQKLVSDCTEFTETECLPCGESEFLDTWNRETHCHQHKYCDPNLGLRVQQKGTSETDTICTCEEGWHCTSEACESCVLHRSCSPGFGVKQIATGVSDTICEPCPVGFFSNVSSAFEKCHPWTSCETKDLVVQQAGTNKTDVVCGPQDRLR

Question: Which results are given for B1?
Answer: Kd: 7.4 nM; koff: 0.00032 s⁻¹; kon: 43000 M⁻¹ s⁻¹

Question: Which results are given for B2?
Answer: Kd: 2.9 nM; koff: 0.00012 s⁻¹; kon: 41000 M⁻¹ s⁻¹

Question: How did the Kd turn out when B3 was run?
Answer: The Kd was 3.3 nM.

Question: And the koff?
Answer: The koff was 0.00013 s⁻¹.

Question: And the kon?
Answer: Its kon is 40000 M⁻¹ s⁻¹.

Question: B4 was tested. Which Kd did it give?
Answer: Its Kd is 5.6 nM.

Question: What about the koff of the same binder?
Answer: The koff was 0.00024 s⁻¹.

Question: What about the kon of the same binder?
Answer: The kon was 42000 M⁻¹ s⁻¹.

Question: With B5 as the binder, how does the Kd read?
Answer: Its Kd is 6.5 nM.

Question: And the koff?
Answer: Its koff is 0.00028 s⁻¹.

Question: What about the kon of the same binder?
Answer: The kon was 42000 M⁻¹ s⁻¹.

Question: With B6 as the binder, how does the Kd read?
Answer: The Kd was 7.7 nM.

Question: And the koff?
Answer: Its koff is 0.00033 s⁻¹.

Question: What about the kon of the same binder?
Answer: Its kon is 42000 M⁻¹ s⁻¹.

Question: Which results are given for B7?
Answer: Kd: 3 nM; koff: 0.00012 s⁻¹; kon: 39000 M⁻¹ s⁻¹

Question: How did the Kd turn out when B8 was run?
Answer: The Kd was 4.5 nM.

Question: What about the koff of the same binder?
Answer: The koff was 0.00017 s⁻¹.

Question: What about the kon of the same binder?
Answer: The kon was 37000 M⁻¹ s⁻¹.

Question: With B9 as the binder, how does the Kd read?
Answer: The Kd was 8.7 nM.

Question: And the koff?
Answer: The koff was 0.00035 s⁻¹.

Question: And the kon?
Answer: Its kon is 40000 M⁻¹ s⁻¹.

Question: What does the source list for B10?
Answer: Kd: 7.1 nM; koff: 0.00028 s⁻¹; kon: 40000 M⁻¹ s⁻¹

Question: For B11, which Kd is on record?
Answer: The Kd was 9.2 nM.

Question: What about the koff of the same binder?
Answer: The koff was 0.00037 s⁻¹.

Question: And the kon?
Answer: The kon was 40000 M⁻¹ s⁻¹.

Question: Which Kd does the source give for B12 here?
Answer: Its Kd is 3.7 nM.

Question: And the koff?
Answer: The koff was 0.00014 s⁻¹.

Question: What about the kon of the same binder?
Answer: The kon was 39000 M⁻¹ s⁻¹.

Question: With B13 as the binder, how does the Kd read?
Answer: The Kd was 2.8 nM.

Question: And the koff?
Answer: Its koff is 0.00011 s⁻¹.

Question: What about the kon of the same binder?
Answer: The kon was 37000 M⁻¹ s⁻¹.

Question: With B14 as the binder, how does the Kd read?
Answer: Its Kd is 8.2 nM.

Question: What about the koff of the same binder?
Answer: The koff was 0.00032 s⁻¹.

Question: And the kon?
Answer: Its kon is 39000 M⁻¹ s⁻¹.
